Laboratory results from patent publication US20240409598A1, “PEPTIDE INHIBITORS OF INTERLEUKIN-23 RECEPTOR” (Janssen Biotech, Inc., priority 2021, published 2024).
*1 amine or outer side, *2 acyl side, *3 side chain or, on linkers, in order; H or OH if unused. Bridges are numbered along the chain shown (N, C = ends). Primed or numbered codes have the meaning given here. [ ]: non-standard residue; d: D form. AEF(G) = 4-(2-guanidinoethoxy)phenylalanine, N=C(N)NCCOc1ccc(C[C@H](N[*:1])C(=O)[*:2])cc1; Trp(7-Me) = Cc1cccc2c(C[C@H](N)C(=O)O)c[nH]c12; 3Pal(5-Me) = Cc1cncc(C[C@H](N)C(=O)O)c1; 2Nal = N[C@@H](Cc1ccc2ccccc2c1)C(=O)O; 3Pal = N[C@@H](Cc1cccnc1)C(=O)O; Pen = CC(C)(S)[C@H](N)C(=O)O; αMeC = C[C@](N)(CS)C(=O)O; AEF′ = not defined here; Abu = CC[C@H](N)C(=O)O; THP = not defined here; Sar = CNCC(=O)O

Tests used:
[1] = tested on: peripheral blood mononuclear cells (PBMCs); assay: PBMC pSTAT3 Assay; type: cell-based; details: PBMCs from healthy donors; IL-23 5 ng/ml; 30 minutes stimulation
Method: Cryopreserved peripheral blood mononuclear cells (PBMCs) from healthy donors were thawed and washed twice in ImmunoCult-XF T cell expansion medium (XF-TCEM) supplemented with CTL anti-aggregate wash. The cells were counted, resuspended at 2×10^5 cells per mL XF-TCEM supplemented with penicillin/streptomycin and 100 ng/ml […] (BioLegend, 579404), and cultured in tissue culture flasks coated with anti-CD3 (eBioscience, 16-0037-85 or BD Pharmingen, 555329) at 37° C. in 5% CO2. On day 4 of culture, PBMCs were collected, washed twice in RPMI-1640 supplemented with 0.1% BSA (RPMI-BSA), and incubated in RPMI-BSA in upright tissue culture flasks for 4 hours at 37° C. in 5% CO2. Following this ‘starvation,’ a total of 6×10^4 cells in 30 μL RPMI-BSA was transferred into each well of a 384-well plate pre-spotted with peptide or DMSO. The cells were incubated for 30 minutes prior to the addition of IL-23 at a final concentration of 5 ng/ml. The cells were stimulated with cytokine for 30 minutes at 370C in 5% CO2, transferred onto ice for 10 minutes, and lysed. Cell lysates were stored at −80° C. until phosphorylated STAT3 was measured using the phospho-STAT panel kit (Meso Scale Discovery, K15202D).

[2] = biological target: T1, interleukin-23 receptor (IL-23R) (UniProt Q5VWK5 24-629, limits assumed); assay: cell-based or functional assay
T1 sequence (looked up): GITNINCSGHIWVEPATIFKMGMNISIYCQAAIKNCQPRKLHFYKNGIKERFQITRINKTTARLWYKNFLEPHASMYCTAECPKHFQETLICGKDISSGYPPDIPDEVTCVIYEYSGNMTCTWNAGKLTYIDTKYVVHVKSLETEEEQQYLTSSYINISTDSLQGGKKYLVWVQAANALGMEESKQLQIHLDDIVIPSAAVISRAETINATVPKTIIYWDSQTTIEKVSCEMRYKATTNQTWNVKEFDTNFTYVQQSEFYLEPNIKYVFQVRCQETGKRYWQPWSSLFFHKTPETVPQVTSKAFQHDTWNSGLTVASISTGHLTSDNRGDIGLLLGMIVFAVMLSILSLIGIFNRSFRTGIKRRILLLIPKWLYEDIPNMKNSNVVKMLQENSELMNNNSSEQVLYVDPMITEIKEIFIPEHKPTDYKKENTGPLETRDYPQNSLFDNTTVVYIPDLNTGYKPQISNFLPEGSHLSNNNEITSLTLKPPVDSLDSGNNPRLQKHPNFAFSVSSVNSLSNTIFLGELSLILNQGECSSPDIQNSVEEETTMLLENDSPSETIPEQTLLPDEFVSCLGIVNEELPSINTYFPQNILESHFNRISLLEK

[3] = biological target: T1, interleukin-23 receptor (IL-23R); assay: cell-based or functional assay; remark: listed apart in the source

Molecule: MeCO-r-Pen-N-T-7MeW-K(Ac)-Pen-AEF-2Nal-THP-E-N-5MePyridinAla-Sar-CONH2 [compound 345]
- IC50 [1]: 0.0076 nM

Molecule: MeCO-r-Abu (1)-N-T-W-K(Ac)-aMeC (1)-AEF-2Nal-THP-E-N-3Pya-Sar-CONH2 [compound 478]
- IC50 [1]: 0.015 nM

B1: Compound 478 (peptide)
peptide: Ac-[dR][Abu]NTWK(Ac)[αMeC][AEF′][2Nal][THP]ENX[Sar]-NH2
modifications: thioether 2-7; not fully specified (residue 13); printed as MeCO-r-Abu (1)-N-T-W-K(Ac)-aMeC (1)-AEF-2Nal-THP-E-N-3Pya-Sar-CONH2
- PBMC pSTAT3 IC50 [2]: 15 pM

B2: Compound 345 (peptide)
peptide: Ac-[dR][Pen]NT[Trp(7-Me)]K(Ac)[Pen][AEF′][2Nal][THP]EN[3Pal(5-Me)][Sar]-NH2
modifications: disulfide 2-7; reading uncertain; also: printed as MeCO-r-Pen-N-T-7MeW-K(Ac)-Pen-AEF-2Nal-THP-E-N-5MePyridinAla-Sar-CONH2
- IC50, IL23R Reporter Assay [3]: 0.005 µM
- PBMC pSTAT3 IC50 [2]: 7.6 pM

B3: Compound 477 (peptide)
peptide: Ac-[Pen]NT[Trp(7-Me)]K(Ac)[Pen][AEF(G)][2Nal][THP]EN[3Pal][Sar]-NH2
modifications: disulfide 1-6; reading uncertain; also: printed as MeCO-Pen-N-T-7MeW-K(Ac)-Pen-AEF(G)-2Nal-THP-E-N-3Pya-Sar-CONH2
- IC50, IL23R Reporter Assay [3]: 0.091 µM
- PBMC pSTAT3 IC50 [2]: 5.5 pM
